Target: human monoclonal antibody BO2C11, FVIII-specific IgG4kappa inhibitory antibody against the C2 domain
Test: cell-based or functional assay

B1: Fab fragments of Ab 14C12 (Fab, V domains shown)
VH: EVQLQQSGPELVKPGASVKLSCKASGYTFTSSVMHWLKQKSGQGLEWIGYINPYNDGTKYNEKFTAKATLTSDKSSSTVYMELSGLTSEDFAVYYCARSGGLLRGYWYFDVWGAGTTVTVSS
VL: DLVLTQSPATLSVTPGDSVSLSCRASQDITNTLHWYHQKSHESPRLLIKYVSQSISGIPSRFSGSGSGTVFTLSINSVETEDFGVYFCQQSTSWPYTFGGGTKLEIKR
neutralisation of BO2C11 inhibitory activity (chromogenic assay): 50 % neutralisation at 1/8 BO2C11/Fab molar ratio
